This is an account of results in patent US20070207967A1, “Peptide Inhibitors of Matrix Metalloproteinase Activity” (CTT CANCER TARGETING TECHNOLOGIES OY, priority 2004, published 2007).

Ends that are not written are not given here.

The assay addresses 125I-labelled MMP-9 C domain (UniProt P14780). The experiment in a line: phage-binding assay, 125I-labelled against unlabelled MMP-9 C domain.

Chain of 125I-labelled MMP-9 C domain (P14780 513-707 limits assumed, form in doubt): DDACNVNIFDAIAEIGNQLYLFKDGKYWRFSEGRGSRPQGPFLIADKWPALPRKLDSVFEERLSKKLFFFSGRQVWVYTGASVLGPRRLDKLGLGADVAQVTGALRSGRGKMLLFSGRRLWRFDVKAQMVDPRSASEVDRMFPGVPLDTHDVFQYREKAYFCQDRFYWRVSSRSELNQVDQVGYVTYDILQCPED

B1: CRV phage (… displayed on phage) (peptide)
peptide: CRVYGPYLLC
modifications: cysteine pairing not given here; also: displayed on phage as coat protein fusion
On to B1, for which the % of CRV peptide-binding activity retained after 125I-labelling came out at 40%.
